Results published in publication PMC5612113.

B1: Notch2 TM helix-containing fragment, Notch2(1666–1710) [human] / itself (parent)
chain: VVSESLTPERTQLLYLLAVAVVIILFIILLGVIMAKRKRKHGSLW
B2: Notch4 TM helix-containing fragment, Notch4(1432–1481) [human] / itself (parent)
chain: VHPHAGTAPPANQLPWPVLCSPVAGVILLALGALLVLQLIRRRRREHGAL
B3: Notch3 TM helix-containing fragment, Notch3(1629–1675) [human] / itself (parent)
chain: VRGEPLEPPEPSVPLLPLLVAGAVLLLVILVLGVMVARRKREHSTLW
B4: Notch1 TM helix-containing fragment, Notch1(1721–1767) [human] / itself (parent)
chain: VQSETVEPPPPAQLHFMYVAAAAFVLLFFVGCGVLLSRKRRRQHGQL

Variants of: B1
Assay: Tango assay
Conditions: with itself;; read off a plot

| response (relative activity (C99-WT = 100)) | Variant |
| --- | --- |
| 82 | VVSESLTPERTQLLYLLPPAVVIILFIILLGVIMAKRKRKHGSLW [chain 1 A18P V19P] |
| 53 | VVSESLTPERTQLLYLLAVAVVIILFIPPLGVIMAKRKRKHGSLW [chain 1 I28P L29P] |
| 46 | VVSESLTPERTQLLYLLAVAVVIILPPILLGVIMAKRKRKHGSLW [chain 1 F26P I27P] |

Variants of: B2
Assay: Tango assay
Conditions: with itself;; read off a plot

| response (relative activity (C99-WT = 100)) | Variant |
| --- | --- |
| 130 | VHPHAGTAPPANQLPWPVLCSPPPGVILLALGALLVLQLIRRRRREHGAL [chain 1 V23P A24P] |
| 140 | VHPHAGTAPPANQLPWPVLCSPVAGVILLALGPPLVLQLIRRRRREHGAL [chain 1 A33P L34P] |
| 93 | VHPHAGTAPPANQLPWPVLCSPVAGVILLAPPALLVLQLIRRRRREHGAL [chain 1 L31P G32P] |

Variants of: B3
Assay: Tango assay
Conditions: with itself;; read off a plot

| response (relative activity (C99-WT = 100)) | Variant |
| --- | --- |
| 84 | VRGEPLEPPEPSVPLLPLLPPGAVLLLVILVLGVMVARRKREHSTLW [chain 1 V20P A21P] |
| 91 | VRGEPLEPPEPSVPLLPLLVAGAVLLLVIPPLGVMVARRKREHSTLW [chain 1 L30P V31P] |
| 62 | VRGEPLEPPEPSVPLLPLLVAGAVLLLPPLVLGVMVARRKREHSTLW [chain 1 V28P I29P] |

Variants of: B4
Assay: Tango assay
Conditions: with itself;; read off a plot

| response (relative activity (C99-WT = 100)) | Variant |
| --- | --- |
| 130 | VQSETVEPPPPAQLHFMYVPPAAFVLLFFVGCGVLLSRKRRRQHGQL [chain 1 A20P A21P] |
| 93 | VQSETVEPPPPAQLHFMYVAAAAFVLLPPVGCGVLLSRKRRRQHGQL [chain 1 F28P F29P] |
| 91 | VQSETVEPPPPAQLHFMYVAAAAFVLLFFPPCGVLLSRKRRRQHGQL [chain 1 V30P G31P] |
